Test results from IntAct's records for PubMed 17855368.

B1: DNA-binding protein inhibitor ID-1 (Homo sapiens), P41134 (parent)
chain: MKVASGSTATAAAGPSCALKAGKTASGAGEVVRCLSEQSVAISRCAGGAGARLPALLDEQQVNVLLYDMNGCYSRLKELVPTLPQNRKVSKVEILQHVIDYIRDLQLELNSESEVGTPGGRGLPVRAPLSTLNGEISALTAEAACVPADDRILCR

Variants of: B1
Details: with cav1_human CAV1, Q03135
Sequence of cav1_human CAV1, Q03135 (Q03135 whole entry): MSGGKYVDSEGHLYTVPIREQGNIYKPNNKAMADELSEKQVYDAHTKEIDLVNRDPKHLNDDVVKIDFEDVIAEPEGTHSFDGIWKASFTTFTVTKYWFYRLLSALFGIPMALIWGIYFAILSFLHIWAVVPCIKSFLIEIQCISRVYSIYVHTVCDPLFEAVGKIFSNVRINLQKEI

Row | effect of a mutation on the interaction | Variant
1 | decreasing interaction | MKVASGSTATAAAGPSCALKAGKTASGAGEVVRCLSEQSVAISRCAGGAGARLPALLDEQQVNVLLYDMNGCYSRLKELVPTLPQNRKVSKVEILQHVIDDIRDLQLELNSESEVGTPGGRGLPVRAPLSTLNGEISALTAEAACVPADDRILCR
